Data published in paper PMC10948613 (Frontiers in Plant Science, 2024).

Target: T1, ProtA-tagged GLABRA3 (GL3) (Arabidopsis thaliana, UniProt Q9FN69 1-637)
T1 construct: GLABRA3 (GL3), basic helix-loop-helix (bHLH)-like transcription factor, Arabidopsis thaliana; Backbone pTREXdest30; The results write 'GL3-ProtA', but the methods say that the tag is fused to the N-terminus; also called GL3-ProtA; ProtA-tagged GL3; source: HEK293TM cells, transiently expressed, in lysate; not shown: Staphylococcus aureus protein A, N-terminal, kept
T1 sequence (looked up): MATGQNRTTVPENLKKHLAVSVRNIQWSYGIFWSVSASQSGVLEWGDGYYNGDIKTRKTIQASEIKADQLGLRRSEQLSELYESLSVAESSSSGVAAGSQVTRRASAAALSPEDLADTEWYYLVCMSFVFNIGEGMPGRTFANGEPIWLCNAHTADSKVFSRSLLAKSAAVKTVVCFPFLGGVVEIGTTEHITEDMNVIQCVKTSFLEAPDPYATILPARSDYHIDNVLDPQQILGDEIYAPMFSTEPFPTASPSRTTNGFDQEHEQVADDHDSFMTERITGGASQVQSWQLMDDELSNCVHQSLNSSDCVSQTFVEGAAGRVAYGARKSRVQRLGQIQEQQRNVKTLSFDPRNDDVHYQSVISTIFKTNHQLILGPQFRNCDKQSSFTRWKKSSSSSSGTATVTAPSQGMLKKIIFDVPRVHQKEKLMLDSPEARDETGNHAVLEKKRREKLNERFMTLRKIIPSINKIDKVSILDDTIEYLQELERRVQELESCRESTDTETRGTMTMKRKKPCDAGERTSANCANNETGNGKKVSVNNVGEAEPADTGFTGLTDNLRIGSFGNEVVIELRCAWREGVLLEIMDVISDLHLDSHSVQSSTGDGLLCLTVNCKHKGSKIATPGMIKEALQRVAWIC
Assay: pull-down; LUMIER pull-down: raw HEK293TM extracts of ProtA-tagged GL3 and a Renilla-tagged protein mixed, dilution series of the ratio, Renilla luminescence on the beads; ratios from HA Western blots; single-site reversible binding model; KD dimensionless and relative to the total GL3 concentration
Details: partners not purified

B1: Renilla-tagged CAPRICE (CPC) (natural protein, Arabidopsis thaliana, UniProt O22059 1-94, looked up)
chain: MFRSDKAEKMDKRRRRQSKAKASCSEEVSSIEWEAVKMSEEEEDLISRMYKLVGDRWELIAGRIPGRTPEEIERYWLMKHGVVFANRRRDFFRK
notes: CAPRICE (CPC), R3MYB, Arabidopsis thaliana; Backbone pTREXdest30; also called CPC-Renilla; source: HEK293TM cells, transiently expressed, in lysate; not shown: Renilla reniformis luciferase (Rluc), N-terminal, kept
In the case of B1, the “relative KD (KD divided by total GL3)” value is reported as 2.3 dimensionless, relative to the total GL3 concentration.

B2: Renilla-tagged TRIPTYCHON (TRY) (natural protein, Arabidopsis thaliana, UniProt Q8GV05 1-106, looked up)
chain: MDNTDRRRRRKQHKIALHDSEEVSSIEWEFINMTEQEEDLIFRMYRLVGDRWDLIAGRVPGRQPEEIERYWIMRNSEGFADKRRQLHSSSHKHTKPHRPRFSIYPS
notes: TRIPTYCHON (TRY), R3MYB, Arabidopsis thaliana; Backbone pTREXdest30; also called TRY-Renilla; source: HEK293TM cells, transiently expressed, in lysate; not shown: Renilla reniformis luciferase (Rluc), N-terminal, kept
In the case of B2, the “relative KD (KD divided by total GL3)” value is reported as 2.7 dimensionless, relative to the total GL3 concentration.

B3: Renilla-tagged GLABRA1 (GL1) (natural protein, Arabidopsis thaliana, UniProt P27900 1-228, looked up)
chain: MRIRRRDEKENQEYKKGLWTVEEDNILMDYVLNHGTGQWNRIVRKTGLKRCGKSCRLRWMNYLSPNVNKGNFTEQEEDLIIRLHKLLGNRWSLIAKRVPGRTDNQVKNYWNTHLSKKLVGDYSSAVKTTGEDDDSPPSLFITAATPSSCHHQQENIYENIAKSFNGVVSASYEDKPKQELAQKDVLMATTNDPSHYYGNNALWVHDDDFELSSLVMMNFASGDVEYCL
notes: GLABRA1 (GL1), R2R3MYB, Arabidopsis thaliana; Backbone pTREXdest30; also called GL1-Renilla; GL1Renilla; source: HEK293TM cells, transiently expressed, in lysate; not shown: Renilla reniformis luciferase (Rluc), N-terminal, kept
In the case of B3, the “relative KD (KD divided by total GL3)” value is reported as 0.5 dimensionless, relative to the total GL3 concentration.

B4: Renilla-tagged TRANSPARENT TESTA GLABRA1 (TTG1) (natural protein, Arabidopsis thaliana, UniProt Q9XGN1 1-341, looked up)
chain: MDNSAPDSLSRSETAVTYDSPYPLYAMAFSSLRSSSGHRIAVGSFLEDYNNRIDILSFDSDSMTVKPLPNLSFEHPYPPTKLMFSPPSLRRPSSGDLLASSGDFLRLWEINEDSSTVEPISVLNNSKTSEFCAPLTSFDWNDVEPKRLGTCSIDTTCTIWDIEKSVVETQLIAHDKEVHDIAWGEARVFASVSADGSVRIFDLRDKEHSTIIYESPQPDTPLLRLAWNKQDLRYMATILMDSNKVVILDIRSPTMPVAELERHQASVNAIAWAPQSCKHICSGGDDTQALIWELPTVAGPNGIDPMSVYSAGSEINQLQWSSSQPDWIGIAFANKMQLLRV
notes: TRANSPARENT TESTA GLABRA1 (TTG1), WD40 protein, Arabidopsis thaliana; Backbone pTREXdest30; also called TTG1-Renilla; Renilla-tagged TTG1; source: HEK293TM cells, transiently expressed, in lysate; not shown: Renilla reniformis luciferase (Rluc), N-terminal, kept
With B4 the “relative KD (KD divided by total GL3)” value was 1 dimensionless, relative to the total GL3 concentration.
